Measured values taken from paper PMC5556974 (Developmental cell, 2017).

Assays:
[1] = molecular target: GST-CrCEP19 (Chlamydomonas reinhardtii); experiment: pull-down
GST-CEP19 (human) = GST-CEP19 (human) (UniProt Q96LK0); experiment: pull-down
[2] = molecular target: the molecule itself

Chain of GST-CEP19 (human) (Q96LK0 whole entry): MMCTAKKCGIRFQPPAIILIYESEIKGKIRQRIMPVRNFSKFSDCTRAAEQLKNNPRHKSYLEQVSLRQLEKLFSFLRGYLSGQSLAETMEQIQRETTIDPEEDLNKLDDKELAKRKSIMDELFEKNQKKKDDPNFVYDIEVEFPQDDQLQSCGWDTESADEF

MYC-CrRabl2 (in vitro translated) (natural protein)
fold enhancement of binding by GTP addition [1]: 5 fold

MYC-RABL2B, full length (in vitro translated) (from UniProt Q9UNT1 1-228) (natural protein)
fold enhancement of binding by GTP addition (GST-CEP19 (human)): 5 fold

B1: untagged human RABL2B (natural protein, UniProt Q9UNT1-2 1-229, looked up)
chain: MAEDKTKPSELDQGKYDADDNVKIICLGDSAVGKSKLMERFLMDGFQPQQLSTYALTLYKHTATVDGRTILVDFWDTAGQERFQSMHASYYHKAHACIMVFDVQRKVTYRNLSTWYTELREFRPEIPCIVVANKIDADINVTQKSFNFAKKFSLPLYFVSAADGTNVVKLFNDAIRLAVSYKQNSQDFMDEIFQELENFSLEQEEEDVPDQEQSSSIETPSEEAASPHS
stoichiometry N [2]: 4
